Laboratory results taken from PMC6529188 (Cell, 2019).
Residue numbers refer to the chain shown, from its start. In names and notes the source's numbering stands. Where no end group is shown, it is not given here.

B1: DR5^TMH (human DR5 isoform 1 residues 208-242, C209G), wild type (domain or fragment, UniProt O14763-1 208-242, looked up)
chain: PGSLSGIIIGVTVAAVVLIVAVFVCKSLLWKKVLP
B2: DR5^TMH V227Y mutant (domain or fragment, human, UniProt O14763-1 208-242, looked up)
chain: B1 chain with V20Y
B3: DR5^TMH G217Y mutant (domain or fragment, human, UniProt O14763-1 208-242, looked up)
chain: B1 chain with G10Y
B4: His6-tagged DR5^TMH, wild type (for OG-label) (domain or fragment, human, UniProt O14763-1 208-242, looked up)
chain: B1 chain
modifications: also: His6-tagged, active amine groups blocked with Sulfo-NHS Acetate
B5: His6-tagged DR5^TMH V227Y mutant (for OG-label) (domain or fragment, human, UniProt O14763-1 208-242, looked up)
chain: B1 chain with V20Y
modifications: also: His6-tagged, active amine groups blocked with Sulfo-NHS Acetate
B6: His6-tagged DR5^TMH G217Y mutant (for OG-label) (domain or fragment, human, UniProt O14763-1 208-242, looked up)
chain: B1 chain with G10Y
modifications: also: His6-tagged, active amine groups blocked with Sulfo-NHS Acetate

Biological target: the molecule itself
Test: SDS-PAGE without boiling of bicelle-reconstituted protein

| Protein | stoichiometry N |
| --- | --- |
| B1 | 3 |
| B2 | 3 |
| B3 | 3 |

Biological target: the molecule itself
Test: cross-linking

| Protein | stoichiometry N |
| --- | --- |
| B4 | 6 |
| B5 | 6 |
| B6 | 3 |
